Where a chain is given by its changes, count along the chain named.
Tests used:
[1] = molecular target: T1, human gc chain mutant, KEI replaced by Ala (Domain 1 Loop EF), myc-tagged, on COS-7 cells (human, UniProt P31785 23-369); test: staining of transfected COS-7 cells, FACS
T1 construct: whole, on cells; not shown: 9 amino acid myc tag at the 5' end of the construct
T1 sequence (looked up): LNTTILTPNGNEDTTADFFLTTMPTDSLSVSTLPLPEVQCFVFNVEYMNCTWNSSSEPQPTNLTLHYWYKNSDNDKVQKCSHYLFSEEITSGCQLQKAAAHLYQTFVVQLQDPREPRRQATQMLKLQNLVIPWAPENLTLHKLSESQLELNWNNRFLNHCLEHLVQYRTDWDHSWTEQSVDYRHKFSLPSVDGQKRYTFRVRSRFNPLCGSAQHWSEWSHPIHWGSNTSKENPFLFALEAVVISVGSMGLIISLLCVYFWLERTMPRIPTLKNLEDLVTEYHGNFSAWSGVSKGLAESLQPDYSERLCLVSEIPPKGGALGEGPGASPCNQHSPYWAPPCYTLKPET
Protocol: (§1) COS-7 cells are transiently transfected with 20 ug of DNA encoding the gc chain mutant or wildtype cDNA and 180 ug of herring sperm carrier DNA. After 2-3 days, COS-7 cells are harvested and analyzed by immnunofluorescent staining with anti-gc chain mAbs. MAbs are used at 10 ug/ml in PBS-1% BSA-0.02% sodium azide and allowed 30 minutes to bind to 1×10⁶ COS-7 cells. Cells are then washed 2 times, and bound mAb is detected with PE-conjugated goat anti-mouse Fc specific antibodies. The % of positive cells staining with the anti-gc chain mAb over an irrelevant control Ig is determined for a given gc chain mutant and for wildtype gc chain. […] Data are adjusted for any differences in level of expression of a mutant vs. wildtype constructs by measuring the binding of a mAb specific for a 9 amino acid myc tag engineered at the 5′ end of each gc chain construct. […] Values reduced from 100% indicate amino acid mutations which affect mAb binding.
(§2) The value “100%” indicates no effect of mutation and lower percentages indicate greater losses in binding as a result of the sequence change.

[2] = molecular target: T2, human gc chain mutant, VEY replaced by Ala (Domain 1 Loop AB), myc-tagged, on COS-7 cells (human, UniProt P31785 23-369); test: staining of transfected COS-7 cells, FACS
T2 construct: whole, on cells; not shown: 9 amino acid myc tag at the 5' end of the construct
T2 sequence (looked up): T1 sequence (looked up) with V45A, E46A, Y47A, A98K, A99E, A100I
Protocol: as §1, §2

[3] = molecular target: T3, human gc chain mutant, HCL replaced by Ala (Domain 2 Loop BC), myc-tagged, on COS-7 cells (human, UniProt P31785 23-369); test: staining of transfected COS-7 cells, FACS
T3 construct: whole, on cells; not shown: 9 amino acid myc tag at the 5' end of the construct
T3 sequence (looked up): T1 sequence (looked up) with A98K, A99E, A100I, H159A, C160A, L161A
Protocol: as §1, §2

[4] = molecular target: T4, human gc chain mutant, SDN replaced by Ala (Domain 1 Loop CC), myc-tagged, on COS-7 cells (human, UniProt P31785 23-369); test: staining of transfected COS-7 cells, FACS
T4 construct: whole, on cells; not shown: 9 amino acid myc tag at the 5' end of the construct
T4 sequence (looked up): T1 sequence (looked up) with S72A, D73A, N74A, A98K, A99E, A100I
Protocol: as §1, §2

[5] = molecular target: T5, human gc chain mutant, NDK replaced by Ala (Domain 1 Loop CC), myc-tagged, on COS-7 cells (human, UniProt P31785 23-369); test: staining of transfected COS-7 cells, FACS
T5 construct: whole, on cells; not shown: 9 amino acid myc tag at the 5' end of the construct
T5 sequence (looked up): T1 sequence (looked up) with N74A, D75A, K76A, A98K, A99E, A100I
Protocol: as §1, §2

[6] = molecular target: T6, human gc chain (common gamma chain of cytokine receptors) on the cell surface (human, UniProt P31785 23-369); test: cell-based or functional assay
T6 sequence (looked up): T1 sequence (looked up) with A98K, A99E, A100I

B1: CP.B8 monoclonal antibody (murine anti-human gc chain, hybridoma ATCC HB-12107) (antibody, V domains shown)
VH: LQESGPGLVAPSQSLSITCTVSGFSLTSYGVHWVRQPPGKGLEWLGVIWAGGSTNYNSALMSRLNINRDNSKSQIFLKMNSLQTDDTAIYYCAREGSTVDSMDYWGQGTTVT
VL: DIVMTQSHKFMSTSVGDSITITCKASQDVTTAVAWYQQKPGQSPKLLIYWASTRHTGVPDRFTGSGSGTDYTLTISSVQAEDLALYYCQQHYITPWTFGGGTKLEI
notes: Used unconjugated and biotin-conjugated; also called CP.B8 mAb; mAb CP.B8
- % binding to mutant gc chain/wildtype gc chain [1]: 2%
- % binding to mutant gc chain/wildtype gc chain [2]: 0%
- % binding to mutant gc chain/wildtype gc chain [3]: 8%
- % binding to mutant gc chain/wildtype gc chain [4]: 68%
- % binding to mutant gc chain/wildtype gc chain [5]: 71%
- inhibition of IL-2-induced T cell proliferation, 73 pM IL-2, mAb at 100 ug/ml, relative to MOPC21 [6]: 51%
- inhibition of IL-2-induced T cell proliferation, 219 pM IL-2, mAb at 100 ug/ml, relative to MOPC21 [6]: 44%

— US20020028202A1 (Biogen, published 2002)
